Test results from patent US20260209387A1, “SINGLE-DOMAIN ANTIBODY FOR INHIBITION OF NEUTROPHIL ELASTASE ACTIVITY” (UNIVERSITE DE LIEGE, priority 2023, published 2026).

Legend:
mNE = biological target: T1, mNE (Mus musculus, UniProt Q3UP87); assay: Affinity of NbE201 for mNE by BLI; assay type: binding
T1 sequence (Q3UP87 27-265): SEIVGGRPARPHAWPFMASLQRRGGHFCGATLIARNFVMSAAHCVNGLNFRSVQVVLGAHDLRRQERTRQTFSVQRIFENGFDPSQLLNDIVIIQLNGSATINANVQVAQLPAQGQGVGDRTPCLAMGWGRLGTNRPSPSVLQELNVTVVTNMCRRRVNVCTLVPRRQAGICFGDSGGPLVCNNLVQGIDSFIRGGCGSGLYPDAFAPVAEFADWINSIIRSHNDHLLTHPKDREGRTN
Description: For mNE, NbE201_Cter Biot was immobilized on SA biosensors (Sartorius) via the C-terminal biotin following the provider's indications. Then, the biosensors were immersed in a solution of mNE at different concentrations (100-50-25-12.5-6.25-3.125 nM). Association and dissociation kinetics were measured for 300 s and 600 s respectively. All the experiments (for both hNE and mNE) were carried out at 30° C. in 384-wells black-bottom microplates in polypropylene (Greiner Bio-One, Belgium) and with orbital agitation (1000 rpm). The obtained sensorgrams were fitted to a 1:1 model by using the Data Analysis Octet Software Version 10.0 (Sartorius) to derive the rate constants for association (kon) and dissociation (koff) and the equilibrium dissociation constant (KD-koff/kon).

[1] = biological target: T2, human proteinase 3 (hPR3) (Homo sapiens, UniProt P24158); assay: BLI binding to other serine proteases: hPR3; details: 50 nM protease
T2 construct: purchased EPC (Elastin Products Company)
T2 sequence (P24158 28-248): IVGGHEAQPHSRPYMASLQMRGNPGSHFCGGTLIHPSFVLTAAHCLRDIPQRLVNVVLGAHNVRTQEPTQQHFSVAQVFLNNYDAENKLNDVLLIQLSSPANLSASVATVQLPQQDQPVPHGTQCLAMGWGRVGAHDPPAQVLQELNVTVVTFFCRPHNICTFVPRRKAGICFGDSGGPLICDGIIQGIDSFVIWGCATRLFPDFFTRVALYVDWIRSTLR
Description: (§1) The specificity of NbE201 for hNE was also investigated by BLI. Biotinylated NbE201 (10 μg/mL) was immobilized on streptavidin biosensors (SA, Sartorius) following provider's indications. The biosensors were then immersed in a 50 nM solution of a serine protease. The proteases tested were human cathepsin G (hCG), human proteinase 3 (hPR3), mouse pancreatic elastase (mPE), mouse neutrophil elastase (mNE) and porcine pancreatic elastase (pPE). hNE was used a positive control. The association and dissociation were measured for 70 s and 320 s respectively, in kinetic buffer (KB, Sartorius). The experiments were carried out at 30° C. in 384-wells black-bottom microplates in polypropylene (Greiner Bio-One, Belgium) and with orbital agitation (1000 rpm).

[2] = test system: mouse pancreatic elastase (mPE); assay: BLI binding to other serine proteases: mPE; details: 50 nM protease
Description: as §1

hNE [3] = biological target: T3, hNE (Homo sapiens, UniProt P08246); assay: Competitive binding by BLI with AAT, EI3 and Nb-H7S-Nter-P1
T3 construct: purchased Elastin Products Company (EPC)
T3 sequence (P08246 30-247): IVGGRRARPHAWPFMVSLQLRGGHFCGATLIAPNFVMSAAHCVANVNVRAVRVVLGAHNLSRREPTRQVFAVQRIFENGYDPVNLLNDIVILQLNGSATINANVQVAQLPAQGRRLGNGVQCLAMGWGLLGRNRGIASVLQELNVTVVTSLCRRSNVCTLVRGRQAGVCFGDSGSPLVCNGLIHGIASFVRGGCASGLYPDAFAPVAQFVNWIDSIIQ
Description: The biotinylated NbE201 (10 μg/ml in KB buffer) was immobilized on streptavidin biosensors (SA, Sartorius) following the provider's indications. A biosensor quenching step with biocytin 1 μg/mL was performed. […] The association was measured for 280 s in kinetic buffer (KB buffer, Sartorius). The experiments were carried out at 30° C. in 384-wells black-bottom microplates in polypropylene (Greiner Bio-One, Belgium) and with agitation (1000 rpm).

hNE [4] = biological target: T3, hNE; assay: Stability of NbE201 towards hNE (SDS-PAGE, 37° C.); assay type: in vitro ADME
Description: NbE201 (26.4 μM) was incubated at 37° C. alone or in the presence of hNE ([NbE201]: [hNE]=4:1). Aliquots (10 μL) taken at different time intervals were mixed with 4 μL of sample loading buffer (Tris-HCl (pH 6.8), SDS denaturant (4%, % w/v), β-mercaptoethanol (5%, % v/v), bromophenol blue (0.01%, % w/v), glycerol (20%, % v/v), H2O)) and then stored at −20° C. until analysis by SDS-PAGE using 4-20% Mini-PROTEAN TGX Protein Gel, 10 wells, 50 μL (Bio-Rad, Germany). Then, the gel was stained by Coomassie blue, destained in water and imaged using a Gel Doc EZ Imager (Biorad). The relative amount of intact protein was quantified by densitometry analysis with a Gel Doc EZ Imager program using the intensity of the band at time zero as the relative standard. hNE alone was incubated on similar conditions and an aliquot was taken at different time points to measure its activity using N-Succinyl-Ala-Ala-Ala-paraNitroAnilide as substrate as describe above.

B1: NbE201: anti-hNE ISVD (VHH/nanobody) from immunized lama, amino acid sequence SEQ ID NO: 4 (protein)
VHH: QVQLQESGGGLVQAGGSLRLSCVVPGRTISLYRMGWFRQAPGKEREFVAGINWSGDMTDYVDSVKGRFTISRDNAKNTVYLEMNSLKPEDTAIYYCTADPKLLPLADSSYGYWGQGTQVTVSS
koff (mNE): 0.019 s⁻¹ | kon (mNE): 390000 M⁻¹ s⁻¹ | binding to hPR3 by BLI [1]: does not bind to the other proteases | binding to mPE by BLI [2]: does not bind to the other proteases | binding of hNE in complex with AAT to immobilized NbE201 (hNE [3]; hNE 250 nM pre-incubated with AAT 1.5 μM): does not bind to NbE201 | binding of hNE pre-incubated with EI3 (MeOSuc-AAPV-CMK) to immobilized NbE201 (hNE [3]; hNE 250 nM, EI3 15 μM): unable to bind to NbE201 | binding of hNE pre-incubated with cAb-H7S-Nter-P1 to immobilized NbE201 (hNE [3]; hNE 250 nM, cAb-H7S-Nter-P1 1.5 μM): unable to bind to NbE201 | time NbE201 is stable in presence of hNE (hNE [4]; 37° C., [NbE201]:[hNE] 4:1): 14 days | percentage of remaining complex (intact NbE201) over time (hNE [4]; in presence of hNE, [NbE201]:[hNE] 4:1, 37° C., 14 days): around 100%
